Experimental findings from patent publication US20240270846A1 (published 2024) are described below.

The target of test [1] is T1, biotin-labeled human CD137 fused to human IgG1 Fc fragment (human, biotin-labeled).
T1 construct: Immobilised on streptavidin beads through biotin; also called human CD137-Fc; biotin-human CD137-Fc
Nature of the test: competitive bead ELISA, IgG on biotin-human CD137-Fc, competitor free CD3 epsilon peptide 125 pmol/well. A general note: ELISA stands for enzyme-linked immunosorbent assay.

The target of test [2] is T1, biotin-labeled human CD137 fused to …. Briefly: bead ELISA, IgG on biotin-human CD137-Fc on streptavidin beads, no free CD3e.
The target is the same in test [3]. Briefly: competitive bead ELISA, decrease of signal on biotin-human CD137-Fc with 125 pmol/well free CD3 epsilon peptide against 0.
Test [4] has as its target T2, biotinylated CD3 epsilon epitope peptide (UniProt P07766 22-48, biotinylated).
T2 chain: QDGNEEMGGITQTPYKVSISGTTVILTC
Nature of the test: SPR (Biacore); biotinylated CD3 epsilon epitope peptide on chip via streptavidin, antibody as analyte. A general note: In SPR one partner is held on a chip, and binding of the other changes the refractive index at the surface.

Positions count from the first letter of the chain named.
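Wherever ELISA signal, free CD3e 125 pmol/well is given: bead ELISA on streptavidin-coated magnetic beads, with the signal read as well fluorescence 2 min after APS-5 addition.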

B1: Du115/DUL008 (antibody, V domains shown)
VH: QVQLVESGGGLVQPGRSLRLSCAASGFTFSNAWMHWVRQAPGKGLEWVAQIKDKANSYNTYYAPSVKGRFTISRDDSKNSIYLQMNSLKTEDTAVYYCRYVHYGSSYGFLFAGYGVDAWGQGTTVTVSS
VL: DIVMTQSPLSLPVTPGEPASISCQSSEELLHANRKTYLHWYQQKPGQAPRLLIYKVQNRFSGVPDRFSGSGSGTDFTLKISRVEAEDVGVYYCAQGTATPFTFGQGTKLEIK
notes: Human IgG1 format; also called dBBDu_115 with L008
Consider B1, for which the “ELISA signal, free CD3e 125 pmol/well” value in test [1] was 2620. Also, the “ELISA signal, free CD3e 0 pmol/well” value in test [2] is 86200. Moreover, the Signal decrease in test [3] worked out at 97%.

B2: dBBDu204 (antibody, human IgG1, V domains shown)
VH: QVQLVESGGGLVQPGRSLRLSCAASGFTFSNAWMHWVRQAPGKGLEWVAQIKDRSNNYATYYAESVKGRFTISRDDSKNSIYLQMNSLKTEDTAVYYCHYVHYASASTVLPAFGVDAWGQGTTVTVSS
VL: DIVMTQSPLSLPVTPGEPASISCRSSQSLVHSNRNTYLHWYQQKPGQAPRLLIYKVSNRFSGVPDRFSGSGSGTDFTLKISRVEAEDVGVYYCGQGTQVPYTFGQGTKLEIK
notes: IgG: VH joined to human IgG1 CH1-Fc, GLS3000 as light chain
For B2, the “ELISA signal, free CD3e 125 pmol/well” value in test [1] came out at 1880. In addition, the “ELISA signal, free CD3e 0 pmol/well” value in test [2] turned out to be 43700. The molecule also displayed a Signal decrease in test [3] of 95.7%.

B3: dBBDu174 (antibody, human IgG1, V domains shown)
VH: QVQLVESGGGLVQPGRSLRLSCAASGFTFSSAWMHWVRQAPGKGLEWVAQIKDRASAYNAYYAESVKGRFTISRDDSKNSIYLQMNSLKTEDTAVYYCRYVHYPSYVSFLPYYGVDAWGQGTTVTVSS
VL: B2 VL
notes: as for B2
In the case of B3, in test [1], the “ELISA signal, free CD3e 125 pmol/well” value is 1880. The “ELISA signal, free CD3e 0 pmol/well” value in test [2] came to 4800. In test [3], the Signal decrease stood at 60.8%.

B4: dBBDu125 (antibody, human IgG1, V domains shown)
VH: QVQLVESGGGLVQPGRSLRLSCAASGFTFSIAWMHWVRQAPGKGLEWVAQIKDKVNGYTAYYAESVKGRFTISRDDSKNSIYLQMNSLKTEDTAVYYCRYVHYAAYYDVLGYGGVDAWGQGTTVTVSS
VL: B2 VL
notes: IgG: VH joined to human IgG1 CH1-Fc, GLS3000 as light chain; also called DXDU01_3_#019; DXDU01_3 #019
Turning to B4, the “ELISA signal, free CD3e 125 pmol/well” value in test [1] stood at 2060. In addition, the “ELISA signal, free CD3e 0 pmol/well” value in test [2] was 61400. Also, the Signal decrease in test [3] came to 96.7%.

B5: dBBDu217 (antibody, human IgG1, V domains shown)
VH: QVQLVESGGGLVQPGRSLRLSCAASGFTFSNAWMHWVRQAPGKGLEWVAQIKDRQQGYATYYAPSVKGRFTISRDDSKNSIYLQMNSLKTEDTAVYYCRFVHYHLAGYGYYGVDAWGQGTTVTVSS
VL: B2 VL
notes: as for B2
Take B5: the “ELISA signal, free CD3e 125 pmol/well” value in test [1] worked out at 2420. Besides, the “ELISA signal, free CD3e 0 pmol/well” value in test [2] amounted to 19100. The molecule further came in with a Signal decrease in test [3] of 87.3%.

B6: dBBDu205 (antibody, human IgG1, V domains shown)
VH: B2 VH with N56Q, N57L, T60A, E64P
VL: B2 VL
notes: as for B2
As to B6, the “ELISA signal, free CD3e 125 pmol/well” value in test [1] came to 2190. Moreover, in test [2], the “ELISA signal, free CD3e 0 pmol/well” value was determined as 45200. This molecule showed a Signal decrease in test [3] of 95.2%.

B7: dBBDu222 (antibody, human IgG1, V domains shown)
VH: QVQLVESGGGLVQPGRSLRLSCAASGFTISSAWMHWVRQAPGKGLEWVAQIKDRANGYAAYYAPSVKGRFTISRDDSKNSIYLQMNSLKTEDTAVYYCRYVHYATAYDGFYGFGVDAWGQGTTVTVSS
VL: B2 VL
notes: as for B2
As to B7, in test [1], the “ELISA signal, free CD3e 125 pmol/well” value was found to be 3240. The “ELISA signal, free CD3e 0 pmol/well” value in test [2] came to 7190. The molecule also displayed a Signal decrease in test [3] of 55%.

B8: anti-human CD137 antibody described in WO2005/035584A1 (abbreviated as B) (antibody, V domains shown)
VH: QVQLQQWGAGLLKPSETLSLTCAVYGGSFSGYYWSWIRQSPEKGLEWIGEINHGGYVTYNPSLESRVTISVDTSKNQFSLKLSSVTAADTAVYYCARDYGPGNYDWYFDLWGRGTLVTVSS
VL: EIVLTQSPATLSLSPGERATLSCRASQSVSSYLAWYQQKPGQAPRLLIYDASNRATGIPARFSGSGSGTDFTLTISSLEPEDFAVYYCQQRSNWPPALTFGGGTKVEIK
notes: also called control anti-CD137 antibody
In the case of B8, the “ELISA signal, free CD3e 125 pmol/well” value in test [1] came to 98100. The “ELISA signal, free CD3e 0 pmol/well” value in test [2] was 99400. Also, in test [3], the Signal decrease was found to be 1.26%.

B9: NNS6f17 (CE115HA340 with WGEGVV inserted between Kabat positions 99 and 100), one-arm antibody (antibody)
chain 1: QVQLVESGGGLVQPGRSLRLSCAASGFTFSNAWMHWVRQAPGKGLEWVAQIKDKSNNYATYYAESVKGRFTISRDDSKNSIYLQMNSLKTEDTAVYYCRYVHYAAWGEGVVYYGVDAWGQGTTVTVSSASTKGPSVFPLAPSSKSTSGGTAALGCLVKDYFPEPVTVSWNSGALTSGVHTFPAVLQSSGLYSLSSVVTVPSSSLGTQTYICNVNHKPSNTKVDKKVEPKSCDKTHTCPPCPAPEAAGGPSVFLFPPKPKDTLMISRTPEVTCVVVDVSHEDPEVKFNWYVDGVEVHNAKTKPREEQYASTYRVVSVLTVLHQDWLNGKEYKCKVSNKALPAPIEKTISKAKGQPREPQVYTLPPSRCELTKNQVSLSCAVKGFYPSDIAVEWESNGQPENNYKTTPPVLDSDGSFFLVSKLTVDKSRWQQGNVFSCSVMHEALHNHYTQKSLSLSPDYKDDDDK
chain 2: EPKSSDKTHTCPPCPAPELLGGPSVFLFPPKPKDTLMISRTPEVTCVVVDVSHEDPEVKFNWYVDGVEVHNAKTKPREEQYNSTYRVVSVLTVLHQDWLNGKEYKCKVSNKALPAPIEKTISKAKGQPREPQVCTLPPSRDELTKNQVSLWCLVKGFYPSDIAVEWESNGQPENNYKTTPPVLDSDGSFFLYSKLTVDKSRWQQGNVFSCSVMHEALHNRYTQKSLSLSP
chain 3: DIVMTQSPLSLPVTPGEPASISCRSSQSLVHSNRNTYLHWYQQKPGQAPRLLIYKVSNRFSGVPDRFSGSGSGTDFTLKISRVEAEDVGVYYCGQGTQVPYTFGQGTKLEIKRTVAAPSVFIFPPSDEQLKSGTASVVCLLNNFYPREAKVQWKVDNALQSGNSQESVTEQDSKDSTYSLSSTLTLSKADYEKHKVYACEVTHQGLSSPVTKSFNRGEC
B9 came in with a Kd in test [4] of 74 nM. This counts as double-digit nanomolar.

B10: NNS6f54 (CE115HA340 with FEWVGW inserted between Kabat positions 99 and 100), one-arm antibody (antibody)
chain 1: B9 chain 1 with W106F, G107E, E108W, G109V, V110G, V111W
chain 2: B9 chain 2
chain 3: B9 chain 3
The molecule B10 had a Kd in test [4] of 29 nM.

B11: NNS6f51 (CE115HA340 with GFLVLW inserted between Kabat positions 99 and 100), one-arm antibody (antibody)
chain 1: B9 chain 1 with W106G, G107F, E108L, G109V, V110L, V111W
chain 2: B9 chain 2
chain 3: B9 chain 3
The molecule B11 gave a Kd in test [4] of 31 nM.

B12: NNS6f55 (CE115HA340 with AGRWLA inserted between Kabat positions 99 and 100), one-arm antibody (antibody)
chain 1: B9 chain 1 with W106A, E108R, G109W, V110L, V111A
chain 2: B9 chain 2
chain 3: B9 chain 3
B12: the Kd in test [4] came to 31 nM.

B13: NNS6f27 (CE115HA340 with VWGSVW inserted between Kabat positions 99 and 100), one-arm antibody (antibody)
chain 1: B9 chain 1 with W106V, G107W, E108G, G109S, V111W
chain 2: B9 chain 2
chain 3: B9 chain 3
As to B13, the affinity in test [4], expressed as Kd, was 38 nM. This Kd and that of the molecule before are within 1.5-fold of each other.

B14: NNS6f52 (CE115HA340 with YMLGLG inserted between Kabat positions 99 and 100), one-arm antibody (antibody)
chain 1: B9 chain 1 with W106Y, G107M, E108L, V110L, V111G
chain 2: B9 chain 2
chain 3: B9 chain 3
In the case of B14, binding in test [4] was characterised by a dissociation constant (Kd) of 52 nM.

B15: NNS6f29 (CE115HA340 with IYYPTN inserted between Kabat positions 99 and 100), one-arm antibody (antibody)
chain 1: B9 chain 1 with W106I, G107Y, E108Y, G109P, V110T, V111N
chain 2: B9 chain 2
chain 3: B9 chain 3
B15: the Kd in test [4] was 90 nM. Against the preceding molecule, the Kd is about 1.7-fold higher.

B16: NNS6f47 (CE115HA340 with HFMWWG inserted between Kabat positions 99 and 100), one-arm antibody (antibody)
chain 1: B9 chain 1 with W106H, G107F, E108M, G109W, V110W, V111G
chain 2: B9 chain 2
chain 3: B9 chain 3
Turning to B16, in test [4], the Kd came to 31 nM.

B17: NNS6f50 (CE115HA340 with LTGGLG inserted between Kabat positions 99 and 100), one-arm antibody (antibody)
chain 1: B9 chain 1 with W106L, G107T, E108G, V110L, V111G
chain 2: B9 chain 2
chain 3: B9 chain 3
In test [4], B17 yielded a Kd of 71 nM.

B18: NNS6f56 (CE115HA340 with REATRW inserted between Kabat positions 99 and 100), one-arm antibody (antibody, V domains shown)
VH: QVQLVESGGGLVQPGRSLRLSCAASGFTFSNAWMHWVRQAPGKGLEWVAQIKDKSNNYATYYAESVKGRFTISRDDSKNSIYLQMNSLKTEDTAVYYCRYVHYAAREATRWYYGVDAWGQGTTVTVSS
VL: DIVMTQSPLSLPVTPGEPASISCRSSQSLVHSNRNTYLHWYQQKPGQAPRLLIYKVSNRFSGVPDRFSGSGSGTDFTLKISRVEAEDVGVYYCGQGTQVPYTFGQGTKLEIKR
B18 yielded a Kd in test [4] of 21 nM. This Kd is about 3.4-fold lower than that of the molecule before.

B19: NNS6f58 (CE115HA340 with SWQVSR inserted between Kabat positions 99 and 100), one-arm antibody (antibody, V domains shown)
VH: B18 VH with R106S, E107W, A108Q, T109V, R110S, W111R
VL: B18 VL
With B19, binding in test [4] was put at a Kd of 44 nM.

What is called Kd is the free concentration of one partner at which half of the binding sites on the other are occupied at equilibrium, for simple one-to-one binding. A lower Kd goes with tighter binding.
